Data as given in publication PMC10397247.
Like-named read-outs stand apart in the source and are kept apart here.

T1: 4H56-AA
T1 chain: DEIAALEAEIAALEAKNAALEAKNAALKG

T2: 4H3073-AA
T2 chain: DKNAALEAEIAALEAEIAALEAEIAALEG

T3: 4H2466-AA
T3 chain: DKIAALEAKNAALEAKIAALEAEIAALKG

T4: 4H3015-AA
T4 chain: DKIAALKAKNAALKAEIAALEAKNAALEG

T5: 4H406-AA
T5 chain: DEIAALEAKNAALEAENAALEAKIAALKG

T6: 4H2931-AA
T6 chain: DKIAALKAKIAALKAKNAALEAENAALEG

T7: 4H3438-AA
T7 chain: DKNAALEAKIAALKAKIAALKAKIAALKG

T8: 4H347-AA
T8 chain: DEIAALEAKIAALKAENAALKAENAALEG

T9: 4H1842-AA
T9 chain: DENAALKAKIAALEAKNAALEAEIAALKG

T10: 4H1626-AA
T10 chain: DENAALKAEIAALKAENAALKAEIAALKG

T11: 4H1597-AA
T11 chain: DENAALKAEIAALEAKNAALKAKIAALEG

T12: 4H1877-AA
T12 chain: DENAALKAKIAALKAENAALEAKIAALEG

T13: 4H171-AA
T13 chain: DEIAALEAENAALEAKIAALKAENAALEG

T14: 4H2109-AA
T14 chain: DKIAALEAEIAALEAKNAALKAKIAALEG

T15: 4H2198-AA
T15 chain: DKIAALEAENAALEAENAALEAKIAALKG

T16: 4H3413-AA
T16 chain: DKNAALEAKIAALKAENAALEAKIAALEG

T17: 4H1351-AA
T17 chain: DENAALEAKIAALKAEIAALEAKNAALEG

T18: 4H32-AA
T18 chain: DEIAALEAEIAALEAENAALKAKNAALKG

T19: 4H3056-AA
T19 chain: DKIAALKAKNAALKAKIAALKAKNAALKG

T20: 4H1874-AA
T20 chain: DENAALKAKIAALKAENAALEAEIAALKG

T21: 4H446-AA
T21 chain: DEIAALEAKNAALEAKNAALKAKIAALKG

T22: 4H380-AA
T22 chain: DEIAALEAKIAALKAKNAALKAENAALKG

T23: 4H2621-AA
T23 chain: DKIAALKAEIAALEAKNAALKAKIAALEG

T24: 4H3939-AA
T24 chain: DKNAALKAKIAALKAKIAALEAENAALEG

T25: 4H464-AA
T25 chain: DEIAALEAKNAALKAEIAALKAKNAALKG

T26: 4H63-AA
T26 chain: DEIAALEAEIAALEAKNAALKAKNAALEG

T27: 4H2728-AA
T27 chain: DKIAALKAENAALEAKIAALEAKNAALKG

T28: 4H3629-AA
T28 chain: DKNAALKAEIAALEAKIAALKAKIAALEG

T29: P9-AA
T29 chain: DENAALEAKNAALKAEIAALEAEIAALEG


Tests used:
Test in all cases: two-hybrid library CCmax;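 note: natural log of median RNA to DNA barcode read ratio; higher means stronger binding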
4H56-AA = target: T1, 4H56-AA; conditions: mean of both orientations
4H3073-AA = target: T2, 4H3073-AA; conditions: mean of both orientations
4H2466-AA = target: T3, 4H2466-AA; conditions: mean of both orientations
4H3015-AA = target: T4, 4H3015-AA; conditions: mean of both orientations
4H406-AA = target: T5, 4H406-AA; conditions: mean of both orientations
4H2931-AA = target: T6, 4H2931-AA; conditions: mean of both orientations
4H3438-AA = target: T7, 4H3438-AA; conditions: mean of both orientations
4H347-AA = target: T8, 4H347-AA; conditions: mean of both orientations
4H1842-AA = target: T9, 4H1842-AA; conditions: mean of both orientations
4H1626-AA = target: T10, 4H1626-AA
4H1597-AA = target: T11, 4H1597-AA; conditions: mean of both orientations
4H1877-AA = target: T12, 4H1877-AA; conditions: mean of both orientations
4H171-AA = target: T13, 4H171-AA
4H2109-AA = target: T14, 4H2109-AA
4H2198-AA = target: T15, 4H2198-AA; conditions: mean of both orientations
4H3413-AA = target: T16, 4H3413-AA; conditions: mean of both orientations
4H1351-AA = target: T17, 4H1351-AA; conditions: mean of both orientations
4H32-AA = target: T18, 4H32-AA; conditions: mean of both orientations
4H3056-AA = target: T19, 4H3056-AA; conditions: mean of both orientations
4H1874-AA = target: T20, 4H1874-AA; conditions: mean of both orientations
4H446-AA = target: T21, 4H446-AA; conditions: mean of both orientations
4H380-AA = target: T22, 4H380-AA; conditions: mean of both orientations
4H2621-AA = target: T23, 4H2621-AA; conditions: mean of both orientations
4H3939-AA = target: T24, 4H3939-AA; conditions: mean of both orientations
4H464-AA = target: T25, 4H464-AA; conditions: mean of both orientations
4H63-AA = target: T26, 4H63-AA; conditions: mean of both orientations
4H2728-AA = target: T27, 4H2728-AA; conditions: mean of both orientations
4H3629-AA = target: T28, 4H3629-AA; conditions: mean of both orientations
P9-AA = target: T29, P9-AA; conditions: mean of both orientations

Row | Binder | interaction score (4H56-AA) | interaction score (4H3073-AA) | interaction score (4H3015-AA) | interaction score (4H406-AA) | interaction score (4H2931-AA) | interaction score (4H3438-AA) | interaction score (4H347-AA) | interaction score (4H1842-AA) | interaction score (4H1626-AA; mean of both orientations) | interaction score (4H1597-AA) | interaction score (4H1877-AA) | interaction score (4H171-AA; mean of both orientations) | interaction score (4H2109-AA; mean of both orientations) | further results
1 | DKIAALEAENAALKAEIAALKAKIAALEG [4H2253-AA] | -1.23 | -0.681 | -1.11 | -1.67 | -1.52 | -1.2 | -1.66 | – | – | – | – | – | – | interaction score (4H2466-AA): -1.68
2 | DENAALEAKIAALKAKIAALKAEIAALEG [4H1385-AA] | – | – | – | – | – | – | – | -1.47 | -1.57 | -0.816 | -0.357 | -0.131 | 0.64 | –
3 | DENAALEAEIAALKAKNAALEAKIAALKG [4H1142-AA] | – | – | – | – | – | – | – | -0.709 | -0.818 | 0.572 | 1.48 | -1.36 | – | interaction score (4H2198-AA): -1.52; interaction score (4H3413-AA): 0.554; interaction score (4H1351-AA): -1.31; interaction score (4H32-AA): -1.11; interaction score (4H3056-AA): -1.15; interaction score (4H2109-AA): 0.249; interaction score (4H1874-AA): 0.966
4 | DEIAALEAENAALKAKNAALKAEIAALEG [4H249-AA] | -1.62 | -1.75 | -1.1 | 1.19 | -1.53 | -1.6 | 0.274 | – | – | – | – | – | – | interaction score (4H446-AA): -1.26; interaction score (4H380-AA): -1.27; interaction score (4H2621-AA): -1.28; interaction score (4H3939-AA): -1.85; interaction score (4H464-AA): -1.77; interaction score (4H63-AA): -1.75; interaction score (4H2728-AA): -0.387; interaction score (4H3629-AA): -1.69
5 | DEIAALEAENAALEAKIAALKAENAALEG [4H171-AA] | – | – | – | – | – | – | – | -1.26 | – | – | -1.1 | – | -0.826 | interaction score (P9-AA): -0.774; interaction score (4H171-AA): -1.01
6 | DENAALKAEIAALKAENAALKAEIAALKG [4H1626-AA] | – | – | – | -1.8 | – | – | -1.66 | -1.57 | – | – | -0.845 | -1.66 | -1.51 | interaction score (4H1626-AA): 1.63
